Results published in the DeepSol protein solubility set.

assay: soluble on expression in E. coli; label from the status in PepcDB or PDB records

Row | Sequence | soluble on expression in E. coli
1 | MGSDKIHHHHHHMVSIIDFYVLQKRPSNGGGFDIAIGNPPYISAPTQIASPELNEQRQRIVASKKYKSLNEKWDLYVPFMELGMQLLCPNGVFSMIVPYPLTNQKYGKKLRKMIVEEYRLLEIADLNGTKIFENATVSNCIPFIQNSQPEGELRITQIFEDKTIREVLSKSPKALKLDKKNYVWNLTEEERTGNRFANMNVLGDFCYISVGMVVNANEKDAQGAFKKEDLISDTYDAIHCRKYIEAKDIDKFQVKRVRYLEWNTERCPEKLRRPTFRELYDRPKLIMNCLGTINVTIDAEEHFLHNHSIYCAILWKDLKDVSNKSISSSVKKFSKHNREAMESLSEKVDLYYLLGILNSSMADQLLTDQRGGDYHIYPEHIRNLPIPVPQREIQNAIGEIAKQILLIRETNTDYSELEEQLNNLVEALYQ | not soluble
2 | MGSDKIHHHHHHMVTNVRIGAMQAYMVAEPWNTRAITGNENIGFTFAQGKEVWLGHPDRLLGVMESFIDKYPKTYRSLVKAMIEACQYCSKAENRQEVAELLTERSFTGARPKKKGAPIAKFTSPGILGNYNYGGFDGKDRTIKAADTTIFFDIPDNLPKQPGEHSTFLWRSRSIWLMTQAARWGQIKEFPKNADKLAQQGWRTDLYREIASEMGIQCPKDDYKVEPPEVFIDKKGFDPSDPVGYLNSFAIRANAPTNFFMS | not soluble
3 | MGSDKIHHHHHHMWAYESVFYQIYPLGFCGAPFENDGVLEHRILKVNDWIPHIKKLGADAIYFSPVFESDTHGYNTRDYTKIDTRLGTNEDFAQVCDNLHKDGIKVVLDGVFNHVGRGFWAFQDVLKNRESSPYVNWFGRIAFDGNSNYNDGLWYEGWEGNYDLVKLNLRNEDVIQHIFSAIKGWVDEFDIDGLRLDVAYCLDHDFLRRLREFCDSLKPDFFLVGETLHGDYNQIMNDAMLHSVTNYECYKGLYSSFNSMNMFEINHSLLRQFGPEQWTLYKGKHLLSFVDNHDVTRVASILTNEKHLPLIYALAFGMPGIPCVYYGSEWGEKAKKEDGDPALRACFEAPQCNELTEWISKLAEAKKQSKALCYGNFYSVVLTNGQCVFGRECDGEKVFVCINAADQPFFAGFDMGKGDATDLITGEQVTLNGGLELPPYSAYFLR | not soluble
4 | MGSDKIHHHHHHMWFKNLKIYRLSAPWALNGDQLEECLARFAYQGGNNLEMQSLGWISPRENGLLAHTLNGQILLTLRAEKKLLPTTVVNQVAKARAQEIEEQQGYKPGRKQMKEIKERVTDELLPKAFSIYRDTRVWIDTVNHWLVIDAAASAKADEVIGLLVKTIDPLPLDNLYVEQSPAAAMTGWLAADEAPANFSIDQDTELRASGESRAAIRYVKHSIDVDDVRRHIQSGKQCTRLAMTWADRVSFVLTESLDVKRVAPLDVLKENPDAATQNDDEKFDSDMTLMTGEVAKLLAELVDSLGGEKRV | not soluble
5 | MGSDKIHHHHHHMYCNMLISLLTFISVEILYNKSNKKYGGNDMSIVQLYDITQIKSFIEHSNYESASYLYKLPQQYNEIDVLITDAIESPGVFSIKENDSIKAIILSFAYDKNKFKVIGPFVADNYVLSVDTFETLFKAMTSNQPDDAVFNFSFEEGIQQYKPLMKVIQASYNFTDYYIEARTRLEEDMHQPNIIPYHKGFYRAFSKLHTTTFKYQAQSPQDIIDSLDDHHHLFLFVSEGLLKGYLYLEIDSQQSIAEIKYFSSHVDYRLKGIAFELLAYALQYAFDNFDIRKVYFKIRNKNNKLIERFNGLGFHINYEYIKFKFESRNVKDQTIPE | not soluble
6 | MGSDKIHHHHHHMYDAVIIGGGPGGYVCAIKLAQLGKKVALVEKDALGGTCTNRGCIPTKAMLTVSHLMDEMKEKASKYGLKVSGVEYDVAAIMKHVQKSVMMSRKGIEYLLKKNGVEVFKGTAVVENKNTVVVQETGEKLEAKNLVLAHGSVPSVFSPFDIDGVWTSDDVFNLKEFPKSLVIVGGGVIGVEFATFFGSFGVDVTIVEIAEHILPYEDSDVAEEVKKALKRKGVKILEKTKISSLSKVDDGFEVALENGETLKAEKVLLAAGRKPNIPEDVKALGVKIEKGVVTDSRMRTNVENVYAIGDIRSGIMLAHVAMYEGIVAAKNIAGEEEEMDYSAVPSIIFSSPEVASVGVREKDVNPEEVVISKFPVSANGRARTMLENIGFAKVIADKKDGTVLGMSIVSPSATDMIMEGVIAVKFRMKAEDLEKAIHPHPTLTETILGALEGVSGKPIHL | not soluble
7 | MGSDKIHHHHHHMYKTYREEERKSVDRGIFKEVPLPCAFLDEVALDRNIQLIIELSGNKKIRIASKSLRSVPVMQKILAANDRFQGIMCFSPREVLFLIEQGFNDLLLGYPAYDDRALHEISLLTKQGLIITCMVDCEDHIVYLEKIAEKSKGCFRVCLDIDMSSRFLNFHFGVKRSPVRDVQGALKIVKRLKESSFLILDGVMGYEAQIAGVGDHIPNQRVKSKVISYLKKKSVLEVKARRGHIVKEIQNLGIELRFVNGGGTGSIKTTEQDHSVSEITIGSAFYAPKLFDYYKEVQLQPAVGFALPVVRKPAPTIYTCLGGGYIASGAIGKDKEPEIWRPNGAKLLALEGAGEVQTPIFYNGEERVEIGDSILFRHSKAGELCERFPFLYRVKEGEIVGEYSTYRGDGQCFL | not soluble
8 | MGSDKIHHHHHHMYLEAFTSHFNSIADSRQSAKVTYPLHDVLFVTLCGVIAGAEGWSEIHDYAAGHHTWFKEKGILTEGVPVDDTIARIISRIEPEQFRLCFANWMRAVHEMSDGHLIAIDGKTLRASYNREDRRSTIHMVNAFACANKVVLGQVKTANKSNEITAIPALLQLLDIEGALVSIDAMGCQTEIARQIVEQGGDYLLAVKVNQSSLHEAVVSAFSEARSNPLDGLVIEKNRGRIEARAYYVIPANQLQDNFPKWMKLNTLGMCLSYRHTKGKEAELTYRYYISSATLDEQLLANSVRGHWGIENSLHWVLDVSMKEDSCQIYQHHGAENWAMLRHISLNMLRAEPSKGSIPAKQKRAWMKPEYLESVLLAGLQLDEF | not soluble
9 | MGSDKIHHHHHHMYLIRKKYITSLENILKKEGVIVDALSNDATIRYRSEEIGDEFTSVYNIQKLLNIAYASQGKESFGLLSYEYFHPGDYDIVNYIMMSSDNLLHALECLCRFSRLLYSGCQLTLDKKNTNTYCIGFTYLYPQDKNKEITRQFHELTVASLLAYCQWLTAANFTHFSSMEFSYPQPYGIRKYETLFACPMTFGTHRNCVYLNAEILLMPLVTSNASLFKLHEKHATCLIDILFNKTIKSRVRDSINKKLETGSCNIHSVASDLFMTPRTLQRRLEEEGAYFKDILEDVKMNLAEYYLIYSQYSLSQVAELVGYKDLSSFHRACLRWFRSSPGFFRERGCKKACLPMK | not soluble
10 | MGSDKIHHHHHHMYRAVIFDFDGTIIDTEQHLFNVINKHLEMHNADPISIDFYRSSIGGAATDLHDHLIKAIGSENKDKLYEEHHLTSTTLPMIDTIKSLMAFLKQRHIPMAIATSSVKAEIMPTFKALGLDDYIEVVVGREDVEQVKPDPELYLSAVQQLNYMPTQCLAIEDSVNGATAAIAAGLDVIVNTNKMTSAQDFSNVDYVAKDIDYDQIVARFFTK | not soluble
11 | MGSDKIHHHHHHMYVVFGATGQTGSAVANALLERNFPVRVVLRSDKAASTWREKGADVAIAEVTDVEAMTAAMREADAVYVMNPPAYNVSDMFALAEQIGECYVEALTNADARKVVLLSSVGSQHASGTGNILTTHILERMLGNLAVPVTVLRAASFMENWGSAAAIAAEQGVLPSFFAPLDRRLPMVSTEDIGRTAAEAMIEDWKGQRIIELHGPIDYSPNDVAAAFAAVLNRNVQAIAVPESDWQATISSFGFSPEAVNSYSEMMRGFNSGHIVFESSPEIETRTGQTAIEAAVDRLTGSKSK | not soluble
12 | MGSDKIHHHHHHNGDEKIDSGMVQQDGEVLQLNVRVGDFAINDVSSIRATDSGSTGTFENGDRIGIIVLDADNNVLSDNIPYRYDGNIWSFDSNNDEGKTTIYYDNKATVYLAYFPYSKEVDNVINIDDLKGKFLPQGDQRSKDAYRASDLLVWSDTSGRPLKKLDIVFEHAYSLLSLSPSIKCKINGRRDFTYVPSSISDVSFNVGTEPLFPYQMNDGSYQIIISPKRAKVRWLYEYNKEMYSGAMPDTDLSANTCYTFTPVLKDIGDYTLDKAQMGDFYCKDESNNGYLIPGDVTALSADMNCLGIVLKSGKDSEGEWVDYCKYKQKYGITEMHTVHGYVLALYDANGGNACTWGLWSLTDINRGEPSTGFYGYKNTQGIISFAENENRTLKNGFPPVYWVTDYEYSHPAPANSSGWFLPSLGQCWYWMYNKAYLLSAVNKATGDNDYGWKLGYWSSSEDDYDPFLNAYYADTYVGAMDWDYKNSKHCVRACLAF | not soluble
13 | MGSDKIHHHHHHNLKDSDRIFTNLYGRHDYRLKGAMARGDWHKTKEIILKGSDWILGELKTSGLRGRGGAGFPSGMKWGFMNKPFDGRPKYLVVNADEGEPGTCKDREIMRHDPHKLIEGCLIGGVAMGARAAYIYIRGEFYNEACILQEAINEAYKAGYLGKDCLGTGYNFDVFVHRGAGAYICGEETALIESLEGKQGKPRLKPPFPADIGLFGCPTTVTNVETVAVAPTICRRGGDWFASFGRERNRGTKLFCISGQVNNPCTVEEEMSVPLKDLIERHCGGVIGGWDNLLAIIPGGSSVPLMPKN | not soluble
14 | MGSDKIHHHHHHNNDDDGTNKAQEIAGKYEGYSIGNCAMFTDYVMGEKSVATIVPNEDGTINVTYDSGSGEFKLNNIKVTSKTFEGSGQVELSMNDKPAGAKDFTLTGSIDEQQKLTLKVNVPSVMGGLTIEFIQGTLPISYHVSGTYNKEANLSVSVGSTTYPDITDCKVSIKRSSDDTVELTLKGLSNLNSSQTGRAMNLGDFTVTDVKVTSTDNSIFKIEGSINTTDTNNTPITGTLSGTVSNSETNITFTFKPGAMPIDITAMFKGKK | not soluble
15 | MGSDKIHHHHHHQIPREPITQQPMSAMPPMPPAMQAPGSIYNPGYAGRPLFEDQRPRNVGDILTIVIAENINATKSSGANTNRQGNTSFDVPTAGFLGGLFNKANLSAQGANKFAATGGASAANTFNGTITVTVTNVLPNGNLVVSGEKQMLINQGNEFVRFSGIVNPNTISGQNSVYSTQVADARIEYSAKGYINEAETMGWLQRFFLNIAPW | not soluble
16 | MGSDKIHHHHHHQIQQQSPYPKREFRGAWIQAVNGQFRGIPTEKLKQTLIDQLNSLQGAGINAIIFQVRPEADALYASQLEPWSRFLTGVQGQAPSPYWDPMQFMIDECHKRGMEFHAWINPYRVKTSLKSELSANHLYNIHPEWFVTYNNQLFFDPALPESRRHICMVVADIVSRYDVDAIHMDDYFYPYPAKGMDFPDDASFARYGGGFTNRADWRRSNVNILIQKIHETIRGLKPWVKFGISPFGIYRNEKNDPLGSKTNGLQNYDDLYADVLLWARNGWVDYNIPQIYWQIGHPAADYETLVKWWAKNTENRPLFIGQSVMNTIQNADPKNPSMNQLPRKMALERAYQTIGGSCQWPASAVVENAGKYRDALVQEYHKYPALVPVFDFMDDKAPGKVRKVKKVWTEDGYMLFWTPPKAKDEMDRAVQYVVYRFGDKEKVNIDDASHIVAVTRNNFYKLPYKDGKNKYRYVVTALDRLHNESKSVSKKVKL | not soluble
17 | MGSDKIHHHHHHSDAGKDRRKKQKQKERQEDDDNNDEPAGGSEMGESGKAKDEKERTSVLEKQAGKKGDDESSSSEEDKEDEDEKKDNSTVIIREENEIIKAEKELDEEKVDQFRQSRVLRFTRSADEARVLPTDAAKFKRDTITQTLKSKELNDGVQLPLDKKPTATASTN | not soluble
18 | MGSDKIHHHHHHSESIIEEAVRKGEVLKGEIVPIDTALFRYAYRMRVQGDKAVILDLHNADYYYHVFTYPDFQYQSSFGKRGEGPGESIYAANIRFAGQDTVWVLDDGKGRMYQYSGIAGGKTPKQEKDILLDKRLFRSLDFDLKDASTVVIPDYSGENRFSWASLSSGELLRKSEQIPVSDPELLRESAPAVAQGWNSFVSFSPDKKILVSVTQFGDRLDIYSMASQKHIGELGGDGEPQFKVSPEGYGLPAGRICYYDVQVTDQYIYTIYDGRKFKDIMKLADAYQQGGKILRISTHEGDVVKTYVLDRPIAGIYVDEAAGMLFGLDVNADEQIVKFPLELE | not soluble
